From IntAct's records for PubMed 20543138

B1: General transcription factor 3C polypeptide 5 (Homo sapiens), Q9Y5Q8 (parent)
chain: MAAEAADLGLGAAVPVELRRERRMVCVEYPGVVRDVAKMLPTLGGEEGVSRIYADPTKRLELYFRPKDPYCHPVCANRFSTSSLLLRIRKRTRRQKGVLGTEAHSEVTFDMEILGIISTIYKFQGMSDFQYLAVHTEAGGKHTSMYDKVLMLRPEKEAFFHQELPLYIPPPIFSRLDAPVDYFYRPETQHREGYNNPPISGENLIGLSRARRPHNAIFVNFEDEEVPKQPLEAAAQTWRRVCTNPVDRKVEEELRKLFDIRPIWSRNAVKANISVHPDKLKVLLPFIAYYMITGPWRSLWIRFGYDPRKNPDAKIYQVLDFRIRCGMKHGYAPSDLPVKAKRSTYNYSLPITVKKTSSQLVTMHDLKQGLGPSGTSGARKPASSKYKLKDSVYIFREGALPPYRQMFYQLCDLNVEELQKIIHRNDGAENSCTERDGWCLPKTSDELRDTMSLMIRQTIRSKRPALFSSSAKADGGKEQLTYESGEDEEDEEEEEEEEEDFKPSDGSENEMETEILDYV

Variants of: B1
Details: with mtor_human MTOR

Row | Variant | effect of a mutation on the interaction
1 | F109I | disrupting interaction
